# Experimental data taken from patent US20020150885.
# T1: N-(Z-YVAD)-N′-acetyl-Rhodamine 110 SEQ ID NO:2
# T1 chain: YVAD
# T2: (Z-VAD)2-Rhodamine 110
# T2 chain: VAD
# T3: N-(Z-DEVD)-N′-acetyl-Rhodamine 110 SEQ ID NO:5
# T3 chain: DEVD
# T4: (Z-YVAD)2-Rhodamine 110 SEQ ID NO:2
# T4 chain: YVAD
# T5: N-(Z-VAD)-N′-acetyl-Rhodamine 110
# T5 chain: VAD
# T6: N-(Z-VD)-N′-acetyl-Rhodamine 110
# T6 chain: VD
# T7: N-Ac-DEVD-N′-(ethylthio)carbonyl-R110 SEQ ID NO:5
# T7 chain: DEVD
# T8: N-Ac-LEVD-N′-ethoxycarbonyl R110 SEQ ID NO:9
# T8 chain: LEVD
# T9: N-Ac-DEVD-N′-hexyloxycarbonyl-R110 SEQ ID NO:5
# T9 chain: DEVD
# T10: N-Z-EVD-N′-ethoxycarbonyl-R110
# T10 chain: EVD
# T11: N-Z-VD-N′-ethoxycarbonyl-R110
# T11 chain: VD
# T12: N-Ac-DEVD-N′-octyloxycarbonyl-R110 SEQ ID NO:5
# T12 chain: DEVD
# T13: N-Ac-DEVD-N′-ethoxycarbonyl-R110 SEQ ID NO:5
# T13 chain: DEVD
# T14: N-Z-DEVD-N′-ethoxycarbonyl-R110 SEQ ID NO:5
# T14 chain: DEVD
# B1: Recombinant ICE protein (protein)
# chain: NPAMPTSSGSEGNVKLCSLEEAQRIWKQKSAEIYPIMDKSSRTRLALIICNEEFDSIPRRTGAEVDITGMTMLLQNLGYSVDVKKNLTASDMTTELEAFAHRPEHKTSDSTFLVFMSHGIREGICGKKHSEQVPDILQLNAIFNMLNTKNCPSLKDKPKVIIIQACRGDSPGVVWFKDSVGVSGNLSLPTTEEFEDDAIKKAHIEKDFIAFCSSTPDNVSWRHPTMGSVFIGRLIEHMQEYACSCDVEEIFRKVRFSFEQPDGRAQMPTTERVTLTRCFYLFPGH
# B2: Recombinant CPP32 protein (protein)
# chain: SGISLDNSYKMDYPEMGLCIIINNKNFHKSTGMTSRSGTDVDAANLRETFRNLKYEVRNKNDLTREEIVELMRDVSKEDHSKRSSFVCVLLSHGEEGIIFGTNGPVDLKKITNFFRGDRCRSLTGKPKLFIIQACRGTELDCGIETDSGVDDDMACHKIPVEADFLYAYSTAPGYYSWRNSKDGSWFIQSLCAMLKQYADKLEFMHILTRVNRKVATEFESFSFDATFHAKKQIPCIVSMLTKELYFYH
# B3: recombinant human caspase-3 (protein)
# chain: B2 chain
# B4: recombinant human caspase-6 (protein)
# chain: AFYKREMFDPAEKYKMDHRRRGIALIFNHERFFWHLTLPERRGTCADRDNLTRRFSDLGFEVKCFNDLKAEELLLKIHEVSTVSHADADCFVCVFLSHGEGNHIYAYDAKIEIQTLTGLFKGDKCHSLVGKPKIFIIQACRGNQHDVPVIPLDVVDNQTEKLDTNITEVDAASVYTLPAGADFLMCYSVAEGYYSHRETVNGSWYIQDLCEMLGKYGSSLEFTELLTLVNRKVSQRRVDFCKDPSAIGKKQVPCFASMLTKKLHFFPKSN
# B5: recombinant human caspase-8 (protein)
# chain: SESQTLDKVYQMKSKPRGYCLIINNHNFAKAREKVPKLHSIRDRNGTHLDAGALTTTFEELHFEIKPHDDCTVEQIYEILKIYQLMDHSNMDCFICCILSHGDKGIIYGTDGQEAPIYELTSQFTGLKCPSLAGKPKVFFIQACQGDNYQKGIPVETDSEEQPYLEMDLSSPQTRYIPDEADFLLGMATVNNCVSYRNPAEGTWYIQSLCQSLRERCPRGDDILTILTEVNYEVSNKDDKKNMGKQMPQPTFTLRKKLVFPSD
# B6: recombinant human caspase-7 (protein)
# chain: AKPDRSSFVPSLFSKKKKNVTMRSIKTTRDRVPTYQYNMNFEKLGKCIIINNKNFDKVTGMGVRNGTDKDAEALFKCFRSLGFDVIVYNDCSCAKMQDLLKKASEEDHTNAACFACILLSHGEENVIYGKDGVTPIKDLTAHFRGDRCKTLLEKPKLFFIQACRGTELDDGIQADSGPINDTDANPRYKIPVEADFLFAYSTVPGYYSWRSPGRGSWFVQALCSILEEHGKDLEIMQILTRVNDRVARHFESQSDDPHFHEKKQIPCVVSMLTKELYFSQ
# Tests used:
# [1] = biological target: T1, N-(Z-YVAD)-N′-acetyl-Rhodamine 110 SEQ …
# (Z-VAD)2-Rhodamine 110 = biological target: T2, (Z-VAD)2-Rhodamine 110
# [2] = biological target: T3, N-(Z-DEVD)-N′-acetyl-Rhodamine 110 SEQ …
# [3] = biological target: T4, (Z-YVAD)2-Rhodamine 110 SEQ ID NO:2
# [4] = biological target: T5, N-(Z-VAD)-N′-acetyl-Rhodamine 110
# [5] = biological target: T6, N-(Z-VD)-N′-acetyl-Rhodamine 110
# [6] = biological target: T7, N-Ac-DEVD-N′-(ethylthio)carbonyl-R110 …
# [7] = biological target: T8, N-Ac-LEVD-N′-ethoxycarbonyl R110 SEQ ID …
# [8] = biological target: T9, N-Ac-DEVD-N′-hexyloxycarbonyl-R110 SEQ …
# [9] = biological target: T10, N-Z-EVD-N′-ethoxycarbonyl-R110
# [10] = biological target: T11, N-Z-VD-N′-ethoxycarbonyl-R110
# [11] = biological target: T12, N-Ac-DEVD-N′-octyloxycarbonyl-R110 SEQ …
# [12] = biological target: T13, N-Ac-DEVD-N′-ethoxycarbonyl-R110 SEQ ID …
# [13] = biological target: T14, N-Z-DEVD-N′-ethoxycarbonyl-R110 SEQ ID …
protein,measurement,setting,value
B1,Km,[1],32 µM
same,Vmax,[1],96 nmol/min
same,Km,(Z-VAD)2-Rhodamine 110,21 µM
same,Vmax,(Z-VAD)2-Rhodamine 110,9 nmol/min
same,Km,[2],12 µM
same,Vmax,[2],9 nmol/min
same,Km,[3],6 µM
same,Vmax,[3],14 nmol/min
same,Km,[4],70 µM
same,Vmax,[4],4 nmol/min
B2,Km,[2],154 µM
same,Vmax,[2],160 nmol/min
same,Km,[5],60 µM
B3,Cleavage by Caspase-3,[6],Good
same,signal above the enzyme blank value (fluorescence of cleaved substrate),[7],a signal that was about 5-fold above the enzyme blank value
same,Cleavage by Caspase-3,[8],Good
same,Cleavage by Caspase-3,[9],Fair
same,Cleavage by Caspase-3,[10],Poor
same,"amount of enzyme needed for cleavage, against tri- and tetrapeptide substrates",[10],a 50-fold greater amount of enzyme than needed for tri- and tetrapeptide substrates
same,Cleavage by Caspase-3,[11],Good
same,Cleavage by Caspase-3,[12],Good
same,Cleavage by Caspase-3,[13],Good
B4,signal to background ratio (fluorescence of cleaved substrate),[7],signal to background ratios of about 13 for caspase-6 to about 26 for caspase-8
B5,signal to background ratio (fluorescence of cleaved substrate),[7],signal to background ratios of about 13 for caspase-6 to about 26 for caspase-8
B6,fluorescent signal of cleaved substrate,[7],Caspase-7 gave virtually no signal
